Results as given in patent US20120264693A1, “COMPOUNDS ACTING AS PEPTIDE GAP JUNCTION MODULATORS, AND USES THEREOF” (Zealand Pharma A/S, priority 2009, published 2012).

Experiments:
recombinant rat Cx43CT = recombinant rat Cx43CT (Rattus norvegicus, UniProt P08050); assay: Surface plasmon resonance (SPR) binding of peptides to immobilised Cx43CT; details: for binding to the Cx43CT (in words): SPR, FIG. 1 / Table 2; for (ru * 100)/Mw: response normalised to molecular weight
Description: FIG. 1. SPR results for compounds (peptides) ZP2769 and ZP2771. Recombinant rat Cx43CT was covalently bound to a carboxylmethyl dextran matrix and used as ligand. Peptides were presented to the bound ligand, and the amplitude of the response was subtracted from that obtained from a control chamber with no ligand. If no change in angle of resonance was observed, this was taken as an indication of absence of binding. The amplitude of the change in angle of resonance (expressed as “response units”) is a function of the molecular mass of the analyte, and for comparison purposes response units were therefore normalized taking into account the molecular weight of the tested compound. Change in angle of incidence of resonance (in “resonance units”) was plotted against time after onset of cyclic peptide exposure. The various curves correspond to different applied concentrations of the peptide in question, as follows:
Compounds of the present invention may be tested for binding to the carboxyl terminal domain of Cx43 using Surface Plasmon Resonance (“SPR”). SPR is a technique that was used to identify the original RXPE sequence (Shibayama et al., “Identification of a Novel Peptide that Interferes with the Chemical Regulation of Connexin-43,” Circ. Res. 98:1365-72 (2006)). The concentration of the compound relative to the amplitude of the response in arbitrary units is measured.
Recombinant Cx43CT is covalently bound to a carboxylmethyl dextran matrix (Salemon et al., “Surface Plasmon Resonance Spectroscopy as a Tool for Investigating the Biochemical and Biophysical Properties of Membrane Protein Systems. II: Applications to Biological Systems,” Biochim. Biophys. Acta 1331(2):131-152 (1997)). Specific peptide compounds are presented and, when feasible, dissociation constants (KD) are calculated from the time course of binding and unbinding of the ligand, using a 1:1 (Langmuir) association and dissociation kinetic model (Biacore software package). In both phases (association and dissociation), the first 5-8 seconds of recording are not included in the fit, to avoid artifacts resulting from peptide distribution within the flow cells (Lang et al., “Surface Plasmon Resonance as a Method to Study the Kinetics and Amplitude of Protein-protein Binding,” in Practical Methods in Cardiovascular Research 936-947 (Stefan Dhein, Friedrich Wilhelm Mohr & Mario Delmar eds., 2005). In the present experiments recombinant rat Cx43CT was covalently bound to a carboxylmethyl-dextran matrix and used as ligand.
Examples of the cyclic peptide compounds of the present invention were presented to the bound ligand, and the amplitude of the response was subtracted from that obtained from a control chamber with no ligand. No change in angle of resonance was taken as an indication of absence of binding. The amplitude of the change in angle of resonance (expressed as “response units”) is a function of the molecular mass of the analyte and for comparison purposes response units were normalized taking account of the molecular weight of the tested compound. Change in angle of incidence of resonance (in “resonance units”) was plotted against time after onset of cyclic peptide exposure.
SPR allows for assessment of ligand-analyte binding in real time, and was used for characterization of two of the cyclic peptide compounds of the present invention. Cx43CT was covalently bound to the matrix of a sensor chip. […] In FIG. 1, the change in angle of incidence of resonance (in “resonance units”) is plotted against time after onset of cyclic peptide exposure. Different concentrations were applied, as indicated.

Cx43 [1] = target: T1, Cx43 (Homo sapiens, UniProt P17302); assay: Octanol-induced uncoupling, dual-cell patch clamp, junctional conductance (Gj) in Cx43-expressing N2A cell pairs; format: cell-based, mouse; details: for cells remaining coupled ten minutes after the onset of octanol superfusion: peptide 100 μM in pipette, 1.5 mM octanol, 10 min; for effect on octanol-induced decrease of Gj compared to control (in words): 1.5 mM octanol perfusion
T1 construct: expressed in transfected cells; host or cells: N2a (mouse neuroblastoma) cells, transiently transfected
T1 sequence (P17302 2-382 limits assumed): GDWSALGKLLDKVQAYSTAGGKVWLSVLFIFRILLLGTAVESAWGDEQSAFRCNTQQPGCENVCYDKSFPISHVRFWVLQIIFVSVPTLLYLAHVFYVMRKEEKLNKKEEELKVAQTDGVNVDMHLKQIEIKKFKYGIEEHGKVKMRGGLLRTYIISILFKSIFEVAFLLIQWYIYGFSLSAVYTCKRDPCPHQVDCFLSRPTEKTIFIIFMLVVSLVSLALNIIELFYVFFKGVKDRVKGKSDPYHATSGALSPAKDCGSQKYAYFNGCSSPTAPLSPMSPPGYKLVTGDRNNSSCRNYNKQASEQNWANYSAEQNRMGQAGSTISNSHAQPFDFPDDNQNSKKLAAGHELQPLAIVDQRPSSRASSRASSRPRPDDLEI
Protocol: FIG. 2. Time course of octanol-induced uncoupling in human Cx43-expressing N2A cells. Cell pairs were recorded with patch pipettes that contained either ZP2778 (0.1 mM; upper curve/trace), or only the internal pipette filling solution (control; lower curve/trace). Experiments were conducted using the dual-cell patch clamp technique, and 1.5 mM octanol perfusion was started at Time=0.
(§1) Patch clamp experiments were conducted in N2a cells transiently transfected with Cx43. In all cases, the dual-whole-cell voltage clamp technique was used to record gap junction currents. Specifics for cell culture, transfection and recordings are described in Shibayama et al. (Identification of a novel peptide that interferes with the chemical regulation of connexin 43. Circ Res 2006 98:1365-72). Octanol superfusion was initiated 5 minutes after patch break and continued for 10 minutes. Concentration of octanol was 1.5 mM in all experiments. Peptides were diluted in the internal pipette solution to a final concentration of 100 μM. A total of 20 experiments were carried out where octanol-induced uncoupling was tested in the absence of peptides. These experiments were averaged, and data used as control for comparison with those series where a given peptide was assessed. Patch clamp experiments were also conducted (cf. FIG. 6 herein) using ventricular myocytes from neonatal Sprague-Dawley rats (rats supplied by Charles River, Mass. USA), isolated and cultured according to Rohr et al. (see Circ. Res. 1991; 68: 114-130, and J. Cardiovasc. Electrophysiol. 1995; 6: 551-568).
Junctional conductance (Gj) was measured in N2a cell pairs expressing Cx43. Patch pipettes were filled with an internal solution containing the specific peptide under study, and the time course and extent of octanol-induced uncoupling was compared to that observed in the absence of the peptide. FIGS. 2-5 show average measurements of junctional conductance and percent of coupled cells recorded at various times after the onset of octanol superfusion for the cyclized peptides ZP2769, ZP2771, ZP2778, ZP2782 and for the dissolution medium (internal pipette solution) used as control. […] For ZP2778 (FIG. 2), 60% of the cells remained coupled, while 20% remained coupled for ZP2782 (FIG. 4).

Cx43 [2] = target: T1, Cx43; assay: Acidification-induced uncoupling (pH 6.2), dual-cell patch clamp in Cx43-expressing N2A cell pairs; details: peptide 0.1 mM in patch pipette, N2A cells
Protocol: FIG. 6. Upper graph: Time course of acidification-induced uncoupling in human Cx43-expressing N2A cells. Cell pairs were recorded with patch pipettes that contained either ZP2771 (0.1 mM; upper curve), or only the internal pipette filling solution buffered to pH 6.2 (control; lower curve). Experiments were conducted using the dual-cell patch clamp technique.
as §1, with “Patch clamp experiments were also conducted (cf. FIG. 6 herein) using ventricular myocytes from neonatal Sprague-Dawley rats (rats supplied by Charles River, Mass. USA), isolated and cultured according to Rohr et al. (see Circ. Res. 1991; 68: 114-130, and J. Cardiovasc. Electrophysiol. 1995; 6: 551-568).” left out

[3] = test system: neonatal rat ventricular cardiac myocytes; assay: Acidification-induced uncoupling (pH 6.2), dual-cell patch clamp in neonatal rat ventricular cardiac myocytes; format: cell-based; details: peptide 0.1 mM buffered to pH 6.2
Protocol: Lower graph: Time course of acidification-induced uncoupling in neonatal rat ventricular cardiac myocytes. Cell pairs were recorded with patch pipettes that contained (i) ZP2771 (0.1 mM, buffered to pH 6.2; uppermost curve; filled square symbols), (ii) linear peptide RRPPYR (0.1 mM buffered to pH 6.2; middle curve; filled triangle symbols), or (iii) only the internal pipette filling solution buffered to pH 6.2 (lowermost curve; filled circle symbols). Experiments were conducted using the dual-cell patch clamp technique.
as §1

[4] = peptide 0.1 mM in patch pipette

recombinant rat Cx43CT, sequence (P08050 229-382 limits assumed): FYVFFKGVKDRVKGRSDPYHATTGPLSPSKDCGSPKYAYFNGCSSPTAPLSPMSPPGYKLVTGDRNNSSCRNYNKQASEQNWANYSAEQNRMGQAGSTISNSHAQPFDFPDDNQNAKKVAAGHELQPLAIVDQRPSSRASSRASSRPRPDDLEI

Row | Substance | binding to the Cx43CT (in words) (recombinant rat Cx43CT) | Resonance Units (ru) (recombinant rat Cx43CT; peptide conc 0.063 mM) | (ru * 100)/Mw (recombinant rat Cx43CT; peptide conc 0.063 mM) | Resonance Units (ru) (recombinant rat Cx43CT; peptide conc 0.125 mM) | (ru * 100)/Mw (recombinant rat Cx43CT; peptide conc 0.125 mM) | Resonance Units (ru) (recombinant rat Cx43CT; peptide conc 0.250 mM) | (ru * 100)/Mw (recombinant rat Cx43CT; peptide conc 0.250 mM) | Resonance Units (ru) (recombinant rat Cx43CT; peptide conc 0.500 mM) | (ru * 100)/Mw (recombinant rat Cx43CT; peptide conc 0.500 mM) | Resonance Units (ru) (recombinant rat Cx43CT; peptide conc 1.000 mM) | (ru * 100)/Mw (recombinant rat Cx43CT; peptide conc 1.000 mM) | cells remaining coupled ten minutes after the onset of octanol superfusion (Cx43 [1]) | effect on octanol-induced decrease of Gj compared to control (in words) (Cx43 [1]; [4]) | Gj fifteen minutes after patch break [3] | other results
1 | Cyclo(RRPPYRQ) (cyclic) [ZP2771] | significant binding | 192.4 | 20.18 | 323.6 | 33.94 | 574.0 | 60.20 | 896.0 | 93.97 | 1253.0 | 131.41 | all cells remained coupled | significantly (p<0.05) prevented the decrease of Gj | approximately 0.47 | Resonance Units (ru) (recombinant rat Cx43CT; peptide conc 0.008 mM): 27.6 ru; (ru * 100)/Mw (recombinant rat Cx43CT; peptide conc 0.008 mM): 2.89; Resonance Units (ru) (recombinant rat Cx43CT; peptide conc 0.016 mM): 58.1 ru; (ru * 100)/Mw (recombinant rat Cx43CT; peptide conc 0.016 mM): 6.09; Resonance Units (ru) (recombinant rat Cx43CT; peptide conc 0.031 mM): 95.8 ru; (ru * 100)/Mw (recombinant rat Cx43CT; peptide conc 0.031 mM): 10.05; Gj at the end of the experiment (Cx43 [1]; peptide 0.1 mM in patch pipette, after 10 minutes of 1.5 mM octanol perfusion): approximately 0.65; Gj fifteen minutes (900 sec) after patch break (Cx43 [2]): approximately 0.49; effect on acidification-induced decrease of Gj compared to control (in words) (Cx43 [2]): significantly (p=0.002) prevented the decrease of Gj; effect on acidification-induced decrease of Gj compared to linear peptide and control (in words) [3]: significantly (p=0.006) prevented the decrease of Gj
2 | RRPPYR [reference compound] | – | – | – | – | – | – | – | – | – | – | – | – | – | approximately 0.17 | –
3 | cyclo(RRPPWN) [ZP2782] | – | – | – | – | – | – | – | – | – | – | – | 20% | reduction in the decrease of Gj | – | –
4 | cyclo(RRPPYN) [ZP2778] | – | – | – | – | – | – | – | – | – | – | – | 60% | significantly (p<0.05) prevented the decrease of Gj | – | –
5 | cyclo(RRPPYQ) [ZP2769] | significant binding | 18.6 | 2.33 | 29.6 | 3.71 | 55.8 | 6.99 | 101.9 | 12.77 | 196.2 | 24.59 | all cells remained coupled | marked reduction in the decrease of Gj | – | –
